# Laboratory results reported in US10295490B2, “MEMS-based calorimeter, fabrication, and use thereof” (The Trustees Of Columbia University In the City of New York, priority 2014, dated 2019).
# Key:
# [1] = MEMS DSC measurement of lysozyme unfolding (Example 2); type: physicochemical; details: 0.1 M Glycine-HCl buffer pH 2.5; 1 to 20 mg/mL; scan 25-75° C. at 5° C./min
# Method: DSC measurements of biomolecules were performed using the calibrated microdevice, whose sample chamber and reference chamber were respectively filled with biological sample and buffer solutions, scanned in a range of temperature of interest. The temperature sensors were used to monitor the temperatures of calorimetric chambers while the device output was obtained in real time to compute the biomolecular thermal power. Before DSC measurements, the baseline in device output, i.e., the thermopile output voltage in the absence of a differential power input, during temperature scanning was measured with both calorimetric chambers filled with buffer solutions. […]
# The thermopile output voltage as a function of temperature, corrected by baseline subtraction, was measured at varying protein concentrations ranging from 1 to 20 mg/mL (FIG. 10).
# Despite the amplitude difference of device output at various protein concentrations, they all yielded consistent estimates of the thermodynamic properties associated with the protein unfolding process. In particular, the profile shape of c was generally not influenced by protein concentration, and ΔH was consistently determined to be approximately 450 kJ/mol with a corresponding melting temperature Tm of approximately 55° C.
# [2] = MEMS AC-DSC measurement of lysozyme unfolding (Example 3); type: physicochemical; details: 10 and 20 mg/mL in 0.1 M Glycine-HCl pH 2.5, 5° C./min, modulation 1, 5 or 10 Hz
# From the text: The microdevice was also placed in a thermal enclosure built in-house. […] The AC-DSC measurement was fully automated through a Lab VIEW program.
# The MEMS AC-DSC device calibrated above was used to measure the thermal behavior of protein unfolding.
# Meanwhile, the specific heat capacity (c) of the protein as a function of temperature can be computed from the thermopile voltage amplitude (FIG. 19).
# [3] = Polymer MEMS DSC measurement of lysozyme unfolding (Example 6); type: physicochemical; details: 0.1 M Glycine-HCL buffer pH 2.5; scan 5 K/min; all concentrations except 1 mg/mL
# Method: The sample solutions and buffer were degassed overnight in a vacuum chamber built in-house, metered with Micropipettes, and introduced by a syringe pump (New Era Pump Systems, Inc., NE-1000) before the DSC measurements.
# Before DSC measurements, the baseline, i.e., the thermopile output voltage in the absence of a differential power input, during temperature scanning in the range of interest was recorded with both calorimetric channels filled with buffer solutions. After which, characterizations of biomolecules were performed with the calorimetric channels, respectively filled with a biological sample and a buffer solutions, and scanned in the same range with pre-specified rate. The temperature sensors were used to monitor the temperatures of calorimetric channels, while the device output was obtained in real time to compute the biomolecular thermal power.
# The calibrated polymer MEMS DSC device was then exploited to characterize protein unfolding. […]
# The thermopile differential voltage as a function of temperature, corrected by baseline subtraction, was measured at varying concentrations ranging from 1 to 20 mg/mL (FIG. 42). […] Furthermore, the differential heat capacity as a function of temperature and the calibrated device sensitivity can be calculated from the device voltage output by Equation 7. The sample heat capacity as a function of temperature was determined by: […]
# [4] = cited from earlier work
substance,measurement,setting,value
"lysozyme: targeted sample biomolecule, purchased from Sigma Aldrich (lyophilized powder, protein ≥90%), used for protein unfolding DSC",melting temperature Tm,[1],approximately 55 °C
same,total change of molar enthalpy (ΔH) of lysozyme unfolding,[1],approximately 450 kJ/mol
same,apparent melting temperature (Tm),[2],55-58 °C
same,melting temperature Tm,[3],54.71 °C
same,total enthalpy change per mole of lysozome (ΔH),[3],101 kcal/mol
same,"Tm of lysozyme, published data",[4],55-58.9 °C
same,"ΔH of lysozyme unfolding, published data",[4],90.1 to 105 kcal/mol
